Source: the PETadex activity labels (doi:10.1016/j.ijbiomac.2024.137732)

Experiments:
gfPET [1] = assay: Proxy for plastic degradation [Released monomer concentration (HPLC/LC-MS) (MHET+BHET+TPA)]; conditions: pH 9
gfPET [2] = assay: Proxy for plastic degradation [Released monomer concentration (HPLC/LC-MS) (TPA+MHET+BHET)]

B1: unnamed (protein)
chain: QTIEMAQSQIDKLAKIETDSLASYADSYTYDEEYFAENEPATIYYPKNLEGKVPAVIVVHGFNCKQKFLQKIPQHLSSHGFICITYTALDQKRPFQWPPGLMAAYEILRGESMRPDSPIYDHVDLDAVALVGHSMGGAGVLHTAMMPYPNGLRGKIKTVVGLNPYNGGPLMAEVGGGANDNLGDDLSHLDIPTMIVTGSYDIVAFPWKSFAFYNSLRGPAKHAFLSIDRMDHADWYFIPSEPKYPILRAILYSWLRAYLADDSEYRDYFVDRPGSSFDKYLKPLLSNTPNPLTRGGESFPPYVLSEEEDPLGTTN
With B1 the “Proxy for plastic degradation” value (gfPET [1]) was 2.4 µM.

B2: unnamed (protein)
chain: NADQFVQFESAAVKPTQFQERNARARGEAVNAVPGTPLQGYLTRPQGEGPFPAIVILHGCAGIHPSVKETWPERLASWGYVVLVVDSFSTRGIQNTCNNLLVDRVYDAYGALEFLSNYSFVDPKRIAVMGFSAGGIATLEAVQFGGAERLMEHKFKAAVAYYPICKAANGDMAVPTLVLVGDLDDWSPAEQCRTMMKQRSGAGSPVQLNVYKGAHHAFDAPEFKTGFEAYGHWIEYNGIAADQSVSDVHAFLRGVFGN
With B2 the “Proxy for plastic degradation” value (gfPET [1]) was 3.8 µM.

B3: unnamed (protein)
chain: QELQEDWWRTGKYAIEDIADPVYSLDEEYMRDTPNLYLPKGKTGKLPVVIVIHGWGGTKEQMQPTAQLLASHGMLVLNYTAVDQNQPFQWLDGLVAAYTLLEGENRRPGSKIYNRVDFQRIGLLGHSMGAAGVLHIAAMEKPNGLRGKIKTVVSMMPYHGTTSTFTDNIAGGKDKLGCDISSTPNATLIISAELDPTNEPIGGYEFYQTLKRNKRVFFSLKGAKHIDWMKERDKKYSVAMPVITAWMLTYLCGETQYESYFREGGHYFEKWVRETLKGNVKVGRGEFPAFEIKEP
For B3, the “Proxy for plastic degradation” value (gfPET [1]) was 4 µM.

B4: unnamed (protein)
chain: QELQENWWSNGKYAIEDVADPVYSFDEEYMKDVPNIYLPIGKTGKLPVVIVVHGWAAYKEQMHDTAQLLASHGMLVLVYTAMDQNQPFQWLDGIIAAYTLLEGENRRPGSKIHNRVDFQRIGLLGHSMGGTGVLFSAAMEKPNGLRGKIKTVVSLMPYHGTTNFISDAVAGGKDKLGCDVSATPNATLIISGEVDEVNEPIGGYEFYQTLTQNKRVFFSMKGTHHNDWRNKEGKESENYPIVMPVVSSWMLAYLCGERQYESFFKEGGLYFEKWIRPTLKGNVKVGRGEFPAFEIKEP
With B4 the “Proxy for plastic degradation” value (gfPET [1]) was 4 µM.

B5: unnamed (protein)
chain: ASEQSTKNITNVTTESDVSVYRDLMLVAGKYVFYPADFETTTKKYPVVTWANGSWCPIQTYLPIIYGLVKAGYIVVADTDLLTDDGKSTVDSVSYIIKQNKNKNSMFYKRINTKQIGSTGHSLGGQAAVNASAKDSRIKAIVSLAGKSVADEAAKVTVPALYLSGTLDMIVPSKDYVYPSYKASKGPAAYASFNNMVHFGVWIAPGNYVKYTVAWFDVYLKGDKSKLSMFKKGGDLSTDDFWINYESKNL
B5 was tested, and the “Proxy for plastic degradation” value (gfPET [2]; pH 6) was 2.5 µM, the “Proxy for plastic degradation” value (gfPET [2]; pH 7) was 5 µM and the “Proxy for plastic degradation” value (gfPET [2]; pH 8) was 10 µM. For the same protein, the “Proxy for plastic degradation” value (gfPET [2]; pH 9) was 15 µM, the “Proxy for plastic degradation” value (gfPET [2]; pH 9, 25 °C) was 4 µM and the “Proxy for plastic degradation” value (gfPET [2]; pH 9, 30 °C) was 6.5 µM. For the same protein, the “Proxy for plastic degradation” value (gfPET [2]; pH 9, 35 °C) was 12 µM, the “Proxy for plastic degradation” value (gfPET [2]; pH 9, 37 °C) was 16 µM and the “Proxy for plastic degradation” value (gfPET [2]; pH 9, 40 °C) was 20 µM. For the same protein, the “Proxy for plastic degradation” value (gfPET [2]; pH 9, 45 °C) was 11 µM, the “Proxy for plastic degradation” value (gfPET [2]; pH 10) was 25 µM and the “Proxy for plastic degradation” value (gfPET [2]; pH 11) was 50 µM. The “Proxy for plastic degradation” value (gfPET [1]) was 17.5 µM.
